Laboratory results taken from PMC8826447 (Nature Communications, 2022).
Values belong to the binder of their own block, whether it stands above or below them. Ends that are not written are not given here. * marks the point of attachment. FITC = O=C1OC2(c3ccc(O)cc3Oc3cc(O)ccc32)c2ccc(NC(=S)*)cc21; βAla = NCCC(=O)O

Experiments:
[1] = target: T1, ASF1a-NT domain (ASF1a residues 1–155) (human, UniProt Q9Y294 1-155); assay: fluorescence polarisation; competition: 63 nM ASF1a 1–155 with 5 nM FITC tracer peptide and rising unlabeled peptide (15.6 nM to 256 μM for the TLK2 peptide); 50 mM Tris pH 8.0, 100 mM NaCl, 10 mM MgCl2, 1.2 mM DTT, 0.012% Brij-35, 0.2 mg/ml BSA; 295 K; conditions: both partners purified
T1 construct: anti-silencing factor 1a (ASF1a), human, N-terminal immunoglobulin-like domain, residues 1-155; Cloned into pGEX4T-1 as an N-terminal GST fusion and eluted with glutathione; No cleavage step is described; the structures are described with ASF1a residues only (151-155 residues per chain); also called ASF1a 1–155; ASF1-NT; source: E. coli BL21 (DE3) Rosetta 2, purified (glutathione-Sepharose, SEC)
T1 sequence (Q9Y294 1-155): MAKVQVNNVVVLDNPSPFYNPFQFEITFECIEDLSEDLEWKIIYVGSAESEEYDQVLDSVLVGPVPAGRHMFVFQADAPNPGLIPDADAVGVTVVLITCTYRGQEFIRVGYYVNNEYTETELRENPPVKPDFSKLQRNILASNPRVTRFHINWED

[2] = target: T1, ASF1a-NT domain (ASF1a residues 1–155); assay: differential scanning fluorimetry; melting temperature of ASF1a 1–155 with or without 160 μM TLK2 peptide; 20 mM HEPES, 250 mM NaCl, 0.1 mM TCEP, pH 7.5; SYPRO orange; ramp 4 to 95 °C; conditions: both partners purified

EC50 [1]: 2200 nM
B1: TLK2 peptide spanning residues 3–23 (peptide)
peptide: EELHSLDPRRQELLEARFTGV
notes: TLK2, human, residues 3-23; also called N-terminal TLK2 peptide; unlabeled TLK2 peptide; source: synthetic peptide (Genscript, >98% purity)
increase of melting temperature (160 μM peptide) [2]: ~5 °C

binding result [1]: binds
B2: histone H3.1 peptide (ASF1-binding fragment) (peptide)
peptide: TIMPKDIQLARRIRGERA
notes: also called Histone H3 peptide; source: synthetic peptide (Genscript, >98% purity)

binding result [1]: binds
B3: fluorescein-labeled TLK2 tracer peptide (FITC-βAla-LHSLDPRRQELLEARFTG) (peptide)
peptide: {FITC-βAla}-LHSLDPRRQELLEARFTG
notes: TLK2, human, N-terminal stretch; also called fluorescently labeled TLK2 peptide; TLK2 fluorescent peptide; source: synthetic peptide (Tufts University Core Facility, purified by HPLC)
